From US20210032315A1 (VIVORYON THERAPEUTICS N V, published 2021) come the findings set out here.

The target in assay [1] is T1, Fibrils of Aβ (1-42) peptides (human).
T1 construct: Fibrillar aggregate of Aβ 1-42, made at pH 8.7 and 37 °C and captured on the sensor chip (about 100 RU); also called Aβ (1-42) fibrils
The assay can be described thus: SPR, fibrils captured on the chip, antibody as analyte, single cycle kinetics. On the procedure: (§1) The obtained sensorgrams were evaluated using five consecutive concentrations (starting with the first injection showing binding) and the Single Cycle Kinetics model with a global fit of Rmax and baseline drift and local fits of the bulk effect of every injection.
(Surface plasmon resonance follows binding to a sensor surface in real time, without labels.)

Assay [2] addresses T2, Oligomers of Aβ (1-42) peptides (human).
T2 construct: Oligomeric Aβ 1-42, made by the ACUMEN protocol in Ham's F12 at 4 °C and captured on the sensor chip (about 300 RU); also called Aβ (1-42) oligomers
The assay can be described thus: SPR, oligomers captured on the chip, antibody as analyte, single cycle kinetics. On the procedure: Oligomers of Aβ (1-42) peptides were generated according to the ACUMEN protocol in Ham's F12 medium overnight at 4° C. and separated from aggregated Aβ by centrifugation. Afterwards the oligomers were aspirated in 20 μl, diluted in 60 μl running buffer and loaded onto a sensor chip by use of capture antibodies with a flow rate of 1 μl/min. Then, the system was washed overnight with 100 μl/min getting a stable baseline.
as §1

Assay [3] addresses T3, Aβ (4-18) (human).
T3 peptide: FRHDSGYEVHHQKLV
The assay can be described thus: SPR, antibody captured by anti-human antibody, peptide as analyte, steady-state model.

In the next assay the target is T4, Aβ (1-18) (human).
T4 peptide: DAEFRHDSGYEVHHQKLV
Briefly: SPR, antibody captured by anti-human antibody, peptide as analyte.

Assay [4] addresses T3, Aβ (4-18). Briefly: SPR, antibody captured by anti-human antibody, peptide as analyte, steady-state model.
A further assay deals with T5, full length human CD32A (human, UniProt P12318 34-317).
T5 construct: whole, on cells; also called Fc gamma receptor
T5 sequence (looked up): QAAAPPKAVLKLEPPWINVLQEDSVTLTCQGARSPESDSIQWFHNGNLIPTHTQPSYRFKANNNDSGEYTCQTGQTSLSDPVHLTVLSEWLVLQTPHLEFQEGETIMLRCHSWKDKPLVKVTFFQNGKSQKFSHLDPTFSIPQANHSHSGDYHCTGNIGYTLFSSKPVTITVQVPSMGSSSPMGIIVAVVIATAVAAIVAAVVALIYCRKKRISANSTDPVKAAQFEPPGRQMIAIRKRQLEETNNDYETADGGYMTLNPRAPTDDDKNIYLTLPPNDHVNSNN
The assay can be described thus: FACS on CHO cells stably expressing the receptor, 7 concentrations. Here is the method:
(§2) The binding was measured in a FACS based bioassay to Chinese Hamster Ovary (CHO) cells stably expressing full length human CD16A, CD32A, CD32B, or CD64. Both antibodies were incubated with each cell line at 7 different concentrations for one hour followed by washing. Receptor-bound H6 or H67 was detected with fluorochrome conjugated-anti-Fab′. Binding capacity was measured by FACS and the Kd and Bmax were calculated by non-linear regression.

A further assay has as its target T6, full length human CD16A (human, UniProt P08637 17-254).
T6 construct: whole, on cells; also called Fc gamma receptor
The assay is described as above. Here is the method: as §2

Another assay deals with T7, full length human CD64 (human, UniProt P12314 16-374).
T7 construct: whole, on cells; also called Fc gamma receptor
T7 sequence (P12314 16-374): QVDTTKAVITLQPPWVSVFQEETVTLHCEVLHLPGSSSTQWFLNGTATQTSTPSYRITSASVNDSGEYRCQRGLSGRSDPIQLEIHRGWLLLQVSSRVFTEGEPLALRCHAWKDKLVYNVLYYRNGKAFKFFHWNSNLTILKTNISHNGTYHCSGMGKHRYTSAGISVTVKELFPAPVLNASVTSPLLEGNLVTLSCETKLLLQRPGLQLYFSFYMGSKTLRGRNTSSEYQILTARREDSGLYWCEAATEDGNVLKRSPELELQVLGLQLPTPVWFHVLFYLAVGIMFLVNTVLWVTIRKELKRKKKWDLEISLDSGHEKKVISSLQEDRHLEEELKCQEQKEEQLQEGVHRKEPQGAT
Described as above. On the procedure: as §2

The target of a further assay is T8, full length human CD32B (human, UniProt P31994 43-310).
T8 construct: whole, on cells; also called Fc gamma receptor
T8 sequence (looked up): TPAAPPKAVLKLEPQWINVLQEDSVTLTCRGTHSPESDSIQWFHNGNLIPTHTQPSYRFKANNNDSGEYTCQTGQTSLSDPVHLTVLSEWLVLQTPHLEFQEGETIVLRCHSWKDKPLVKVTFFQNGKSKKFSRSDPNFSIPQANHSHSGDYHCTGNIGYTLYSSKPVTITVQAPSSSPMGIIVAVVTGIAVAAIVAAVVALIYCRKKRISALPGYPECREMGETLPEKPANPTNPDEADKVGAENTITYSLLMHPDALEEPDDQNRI
Described as above. On the procedure: as §2

Positions count from the first letter of the chain named. Names and notes keep the numbering of the source. Like-named read-outs stand apart in the source and are kept apart here.

T1 sequence (peptide, as listed by the source): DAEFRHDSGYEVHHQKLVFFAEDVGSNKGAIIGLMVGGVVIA
T2 sequence (peptide, as listed by the source): as above
T6 sequence (P08637 17-254): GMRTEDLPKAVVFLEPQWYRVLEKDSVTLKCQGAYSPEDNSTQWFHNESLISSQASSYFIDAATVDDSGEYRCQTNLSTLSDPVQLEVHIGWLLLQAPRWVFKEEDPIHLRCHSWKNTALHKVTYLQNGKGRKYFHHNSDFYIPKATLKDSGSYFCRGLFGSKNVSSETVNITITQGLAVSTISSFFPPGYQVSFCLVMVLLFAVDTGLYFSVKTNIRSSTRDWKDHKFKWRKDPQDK

B1: parental antibody clone #6 disclosed in WO 2017/009459 (antibody, V domains shown)
VH: QVQLVQSGAEVKKSGASVKVSCKASGYSFTGHTMNWVRQAPGQGLEWMGLINPSNGVTRYNQKFQGRVTITRDTSTTTVHMELTSLTSEDTATYYCTREAKREWDETYWGQGTLVTVSS
VL: DVVMTQSPLSLPVTLGQPASISCKSSQSLLYSDGKTYLNWFQQRPGQSPRRLTYLVSKLDSGVPDRFSGSGSGTDFTLKISRVEAEDVGVYYCVQGTHFPFTFGGGTKVEIK
notes: also called parental clone #6 variant
For orientation: Kd means a measure of binding affinity in units of concentration. Read a high Kd as lower affinity. One may read the koff as the first-order rate constant of dissociation. The low end stands for slow dissociation, the high end for fast dissociation. For orientation: kon means the second-order rate constant of association. A lower kon goes with slower complex formation. In assay [1], B1 came in with a Kd of 0.0659 nM, a koff of 6.53e-05 s⁻¹ and an on-rate constant (kon) of 990000 M⁻¹ s⁻¹. Besides, in [2], the equilibrium dissociation constant (Kd) stood at 7.61 nM, the koff is 0.000142 s⁻¹ and the association rate constant (kon) was 18600 M⁻¹ s⁻¹.

B2: humanized and de-immunized antibody clone #6 of the present invention (antibody, V domains shown)
VH: B1 VH with K12V, S14P, N55D
VL: B1 VL
notes: It was captured by a polyclonal anti-human antibody, so it has human constant regions
On to B2, for which the Kd in [1] is 1.67 nM; in the assay with Aβ (4-18) [3], over 10000 nM; with Aβ (1-18), over 10000 nM; in [2], 269 nM; with Aβ (4-18) [4] it was 28300 nM.

B3: antibody comprising the wild-type heavy chain of SEQ ID NO: 19 (antibody, human IgG1, kappa)
heavy: not shown
light: DVVMTQSPLSLPVTLGQPASISCKSSQSLLYSDGKTYLNWFQQRPGQSPRRLTYLVSKLDSGVPDRFSGSGSGTDFTLKISRVEAEDVGVYYCVQGTHFPFTFGGGTKVEIKRTVAAPSVFIFPPSDEQLKSGTASVVCLLNNFYPREAKVQWKVDNALQSGNSQESVTEQDSKDSTYSLSSTLTLSKADYEKHKVYACEVTHQGLSSPVTKSFNRGEC
notes: also called antibody according to A)
B3: the binding result with full length human CD32A, with full length human CD16A, with full length human CD64 and with full length human CD32B was “binds” in each case.

B4: K324A mutant variant (comprising the heavy chain of SEQ ID NO: 18) (antibody, human IgG1, kappa)
heavy: not shown
light: B3 light
notes: also called antibody according to B)
Turning to B4, the binding result in the assay with full length human CD32A, with full length human CD16A, in the assay with full length human CD64 and with full length human CD32B was “binds” throughout.
